Assay results published in patent US20200199244A1 (published 2020).

Target: human CD40 (human, UniProt P25942 21-277)
Assay: cell-based or functional assay

Sequence of human CD40 (P25942 21-277 limits assumed): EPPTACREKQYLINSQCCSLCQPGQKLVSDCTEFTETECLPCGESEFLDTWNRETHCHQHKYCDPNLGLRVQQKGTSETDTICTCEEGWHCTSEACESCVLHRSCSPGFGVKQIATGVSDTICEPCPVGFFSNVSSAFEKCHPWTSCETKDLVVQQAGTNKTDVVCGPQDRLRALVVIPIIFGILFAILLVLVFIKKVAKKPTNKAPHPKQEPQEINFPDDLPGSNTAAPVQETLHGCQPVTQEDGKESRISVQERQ

| hIZCD40L-driven Human B Cell Proliferation EC50 [nM] | CHO-hCD40L-driven Human B Cell Proliferation EC50 [nM] | CHO-hCD40L-driven DC Activation IL-12 EC50 [nM] | T-B cell MLR EC50 [nM] | Binder |
| --- | --- | --- | --- | --- |
| 141 |  |  |  | BMS3h-131-6 (other) VL: DIQMTVSPSSLSASVGDRVTITCRANSSILWALAWYQQKPGKAPKLLIESSSGLQSGVPSRFSGSGSGTDFTLTISSLQPEDFATYYCVQNAVWPGTFGQGTKVEIKR |
| 24 |  |  |  | BMS3h-131-14 (other) VL: DIQMTQSPSSLSASVGDRVTITCRANSSILWALAWYQQKPGKAPKLLIESSSGLQSGVPSRFSGSGTGTDFTLTISGLQPEDFATYYCVQNAVWPGTFDQGTKVEIKR |
| 0.14 | 15 | 1.8 | 9.7 | BMS3h-56-269 (other) VH: EVQLLESGGGLVQPGGSLRLSCAASGFTFRDYEMWWVRQAPGKGLERVSAINPQGTRTYYADSVKGRFTISRDNSKNTLYLQMNSLRAEDTAVYYCAKLPFRFSDRGQGTLVTVSS |
| 0.17 | 25.5 | 3 | 17 | BMS3h-56-261 (other) VH: EVQLLESGGGLVQPGGSLRLSCAASGFTFRDYEMWWVRQAPGKGLERVSAINPQGTRTYYADSVKGRFTISRDNSKNTLYLQMNSLRAEDTAVYYCAKLPFFFQEWGQGTLVTVSS |
| 0.31 |  |  |  | BMS3h-56-270 (other) VH: EVQLLESGGGLVQPGGSLRLSCAASGFTFRDYEMWWVRQAPGKGLERVSAINPQGTRTYYADSVKGRFTISRDNSKNTLYLQMNSLRAEDTAVYYCAKLPTLFQDWGQGTLVTVSS |
| 0.36 |  |  |  | BMS3h-56-265 (other) VH: EVQLLESGGGLVQPGGSLRLSCAASGFTFRDYEMWWVRQAPGKGLERVSAINPQGTRTYYADSVKGRFTISRDNSKNTLYLQMNSLRAEDTAVYYCAKLPQLFQDWGQGTLVTVSS |
| 0.079 | 11 | 1.52 | 8.7 | BMS3h-56-258 (other) VH: EVQLLESGGGLVQPGGSLRLSCAASGFTFRDYEMWWVRQAPGKGLERVSAINPQGTRTYYADSVKGRFTISRDNSKNTLYLQMNSLRAEDTAVYYCAKLPFYFHEWGQGTLVTVSS |
| 0.19 | 19.5 | 2.8 | 13.8 | BMS3h-56-266 (other) VH: EVQLLESGGGLVQPGGSLRLSCAASGFTFRDYEMWWVRQAPGKGLERVSAINPQGTRTYYADSVKGRFTISRDNSKNTLYLQMNSLRAEDTAVYYCAKLPFFFHEWGQGTLVTVSS |
| 0.31 |  |  |  | BMS3h-56-262 (other) VH: EVQLLESGGGLVQPGGSLRLSCAASGFTFRDYEMWWVRQAPGKGLERVSAINPQGTRTYYADSVKGRFTISRDNSKNTLYLQMNSLRAEDTAVYYCAKLPQLFHDRGQGTLVTVSS |

Second part, the binder before the results:

| Binder | hIZCD40L-driven Human B Cell Proliferation EC50 [nM] | CHO-hCD40L-driven Human B Cell Proliferation EC50 [nM] | CHO-hCD40L-driven DC Activation IL-12 EC50 [nM] | T-B cell MLR EC50 [nM] |
| --- | --- | --- | --- | --- |
| BMS3h-5 (other) VH: EVQLLESGGGLVQPGGSLRLSCAASGFTFDEHDMSWVRQAPGKGLEWVSRIGPDGFHTYYADSVKGRFTISRDNSKNTLYLQMNSLRAEDTAVYYCAKGRIPTLHFDYWGQGTLVTVSS | > 7000 | > 7000 |  |  |
| BMS3h-56-206 (other) VH: EVQLLESGGGLVQPGGSLRLSCAASGFTFRDYEMWWVRQAPGKGLERVSAINPQGTRTYYADSVKGRFTISRDNSKNTLYLQMNSLRAEDTAVYHCAKLPMFFEDWGQGTLVTVSN | 0.1 | 6 | 0.7 | 5.25 |
| BMS3h-56-215 (other) VH: EVQLLESGGGLVQPGGSLRLSCAASGFTFRDYEMWWVRQAPGKGLERVSAINPHGSLTYYADSVKGRFTISRDNSKNTLYLQMNSLRAEDTAVYYCAKLPFTFDDWGQGTLVTVSS | 0.2 | 41 | 11 | 31 |
| BMS3h-56-239 (other) VH: EVQLLESGGGLVQPGGSLRLSCAASGFTFRDYEMWWVRQAPGKGLERVSAINPWGSLTYYADSVKGRFTISRDNSKNTLYLQMNSLRAEDTAVYYCAKLPFTFDDWGQGTLVTVSS | 0.11 | 18 | 5.8 | 13.5 |
| BMS3h-56-6 (other) VH: EVQLLESGGGLVQPGGSLRLSCAASGFSFRDYEMWWYRQAPGKGLERVSAINPQGTRTYYADSVKGRFTISRDNSKNTLYLQMNSLRAEDTAVYYCAKLPFIFDNRGQGTLVTVSS | 4 |  |  |  |
| BMS3h-56-8 (other) VH: EVQLLESGGGLVQPGGSRRLSCAASGFTFRDYEMWWVRQAPGKGLERVSAINPQGTRTYYADSVKGRFTISRDNSKNTLYLQMNSLRAEDTAVYYCAKLPFTFEDWGQGTLVTVSS | 5 |  |  |  |
| BMS3h-56-7 (other) VH: EVQLLESGGGLVQPGGSLRLSCAASGFTFRDYEMWWVRQAPGKGLERVSAINPQGTRTYYADSVKGRFTISRDNSKNTLYLQMNSLRAEDTSVYHCAKPPFIFGDWGPGTLVTVSS | 8 |  |  |  |
| BMS3h-56-253 (other) VH: EVQLLESGGGLVQPGGSLRLSCAASGFTFRDYEMWWVRQAPGKGLERVSAINPAGGYTYYADSVKGRFTISRDNSKNTLYLQMNSLRAEDTAVYHCAKLPFTFEDWGQGTLVTVSS | 0.4 |  |  |  |
| BMS3h-56-243 (other) VH: EVQLLESGGGLVQPGGSLRLSCAASGFTFRDYEMWWVRQAPGKGLERVSAINPWGGFTYYADSVKGRFTISRDNSKNTLYLQMNSLRAEDTAVYYCAKLPFTFEDWGQGTLVTVSS | 0.15 | 13.5 | 8.8 | 14.2 |
| BMS3h-56-15 (other) VH: EVQLLESGGGLVQPGGSLRLSCAASGFTFRDYEMWWVRRAPGKGLERVSAINPQGTRTYYADSVKGRFTISRDNSKNTLYLQMNSLRAEDTAVYYCAKLPFTFEDWGQGTLVTVSS | 2 |  |  |  |
| BMS3h-56-217 (other) VH: EVQLLESGGGLVQPGGSLRLSCAASGFTFRDYEMWWVRQAPGKGLERVSAINPWGSLTYYADSVKGRFTISRDNSKNTLYLQMNSLRAEDTAVYYCAKLPFTFEDWGQGTLVTVSS | 0.1 | 13 | 9.4 | 16 |
| BMS3h-56-246 (other) VH: EVQLLESGGGLVQPGGSLRLSCAASGFTFRDYEMWWVRQAPGKGLERVSAINPWGTLTYYADSVKGRFTISRDNSKNTLYLQMNSLRAEDTAVYYCAKLPFTFEDWGQGTLVTVSS | 0.24 | 34 | 23.2 | 23.8 |
| BMS3h-56-9 (other) VH: EVQLLESGGGLVQPGGSLRLSCAASGFTFRDYEMWWVRQAPGKGLERVSAINPQGTRTYYADSVMGRFTISRDNSKNTLYLQMNSLRAEDTAVYYCAKLPFMFDDRGQGTLVTVSS | 3 |  |  |  |
| BMS3h-56-224 (other) VH: EVQLLESGGGLVQPGGSLRLSCAASGFTFRDYEMWWVRQAPGKGLERVSAINPWGQLTYYADSVKGRFTISRDNSKNTLYLQMNSLRAEDTAVYYCAKLPFTFEDWGQGTLVTVSS | 0.5 | 26 | 18 | 47 |
| BMS3h-56-244 (other) VH: EVQLLESGGGLVQPGGSLRLSCAASGFTFRDYEMWWVRQAPGKGLERVSAINPWGGLTYYADSVKGRFTISRDNSKNTLYLQMNSLRAEDTAVYYCAKLPFTFDDWGQGTLVTVSS | 0.17 | 26 | 12.6 | 21 |
| BMS3h-56-19 (other) VH: EVQLLESGGGLVQPGGSLRLSCAASGFTFRDYEMWWVRQAPGKGLERVSAINPQGTRTYYADSVKGRFTISRDNSKNTLYLQMNSLRAEDTAVYHCAKLPFTFEDWGQGTLVTVSS | 3 |  |  |  |
| BMS3h-56-248 (other) VH: EVQLLESGGGLVQPGGSLRLSCAASGFTFRDYEMWWVRQAPGKGLERVSAINPYGNLTYYADSVKGRFTISRDNSKNTLYLQMNSLRAEDTAVYYCAKLPFTFDDWGQGTLVTVSS | 0.36 |  |  |  |
| BMS3h-56-21 (other) VH: EVQLLESGGGLVQPGGSLRLSCAASGFTFRDYEMWWVRQAPGKGLERVSAINPQGTRTYYADSVKGRFTISRDNSKNTLYLQMNSLRAEDTAVYYCLKLPFTFEDWGQGTLVTVSS | 2 |  |  |  |
| BMS3h-56-232 (other) VH: EVQLLESGGGLVQPGGSLRLSCAASGFTFRDYEMWWVRQAPGKGLERVSAINPWGSHTYYADSVKGRFTISRDNSKNTLYLQMNSLRAEDTAVYYCAKLPFTFDDWGQGTLVTVSS | 0.27 | 37 | 7.3 | 42 |
